Source: the supplement of paper PMC9112550, “Optimization of the antimicrobial peptide Bac7 by deep mutational scanning” (BMC Biology, 2022)

System: Escherichia coli TOP10
Test: shrunken log2 fold change of peptide-encoding DNA abundance (4.5 h post-induction vs induction); higher = less antimicrobial activity (less host growth inhibition)
Details: time post-induction: 4.5 h; library: site-saturation at positions 5, 18, 19, 20
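Further: peptides expressed intracellularly from a pBAD plasmid library in pooled LB shake-flask culture, induced with 0.3% L-arabinose, DNA abundance read by NGS, three biological replicates, DESeq2 with apeglm shrinkage.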

| Sequence | shrunken log2 fold change |
| --- | --- |
| RRIRDRPPRLPRPRPRPMTIPRP | 0.0371 |
| RRIRDRPPRLPRPRPRPMTVPRP | 0.047 |
| RRIRDRPPRLPRPRPRPMVQPRP | -0.00146 |
| RRIRDRPPRLPRPRPRPMYAPRP | 0.143 |
| RRIRDRPPRLPRPRPRPMYGPRP | -0.0676 |
| RRIRDRPPRLPRPRPRPMYKPRP | -0.363 |
| RRIRDRPPRLPRPRPRPNCMPRP | 0.111 |
| RRIRDRPPRLPRPRPRPNDDPRP | 0.226 |
| RRIRDRPPRLPRPRPRPNDLPRP | 0.124 |
| RRIRDRPPRLPRPRPRPNFHPRP | -0.0585 |
| RRIRDRPPRLPRPRPRPNHCPRP | 0.0177 |
| RRIRDRPPRLPRPRPRPNHFPRP | -0.189 |
| RRIRDRPPRLPRPRPRPNKFPRP | -0.293 |
| RRIRDRPPRLPRPRPRPNKMPRP | -0.195 |
| RRIRDRPPRLPRPRPRPNLDPRP | -0.103 |
| RRIRDRPPRLPRPRPRPNMHPRP | 1.35 |
| RRIRDRPPRLPRPRPRPNMTPRP | 0.0572 |
| RRIRDRPPRLPRPRPRPNNGPRP | -0.0483 |
| RRIRDRPPRLPRPRPRPNNQPRP | -0.513 |
| RRIRDRPPRLPRPRPRPNPPPRP | 0.2 |
| RRIRDRPPRLPRPRPRPNYHPRP | -0.359 |
| RRIRDRPPRLPRPRPRPPDQPRP | 0.72 |
| RRIRDRPPRLPRPRPRPPDYPRP | -0.0704 |
| RRIRDRPPRLPRPRPRPPEFPRP | -0.0567 |
| RRIRDRPPRLPRPRPRPPEKPRP | 0.106 |

| Sequence | shrunken log2 fold change |
| --- | --- |
| RRIRDRPPRLPRPRPRPPEQPRP | 0.261 |
| RRIRDRPPRLPRPRPRPPFHPRP | 0.0293 |
| RRIRDRPPRLPRPRPRPPFIPRP | -0.533 |
| RRIRDRPPRLPRPRPRPPFRPRP | 0.126 |
| RRIRDRPPRLPRPRPRPPFWPRP | 0.185 |
| RRIRDRPPRLPRPRPRPPGMPRP | 0.201 |
| RRIRDRPPRLPRPRPRPPHTPRP | 0.198 |
| RRIRDRPPRLPRPRPRPPMLPRP | -0.0165 |
| RRIRDRPPRLPRPRPRPPRSPRP | 1.11 |
| RRIRDRPPRLPRPRPRPPSNPRP | 0.137 |
| RRIRDRPPRLPRPRPRPPSQPRP | 0.113 |
| RRIRDRPPRLPRPRPRPPTCPRP | 0.0486 |
| RRIRDRPPRLPRPRPRPPTSPRP | 0.00594 |
| RRIRDRPPRLPRPRPRPPTTPRP | 0.151 |
| RRIRDRPPRLPRPRPRPPVKPRP | 0.421 |
| RRIRDRPPRLPRPRPRPPWGPRP | 0.344 |
| RRIRDRPPRLPRPRPRPPWLPRP | 0.296 |
| RRIRDRPPRLPRPRPRPQACPRP | 0.303 |
| RRIRDRPPRLPRPRPRPQADPRP | 0.103 |
| RRIRDRPPRLPRPRPRPQAGPRP | 0.152 |
| RRIRDRPPRLPRPRPRPQAHPRP | 0.0994 |
| RRIRDRPPRLPRPRPRPQDTPRP | -0.366 |
| RRIRDRPPRLPRPRPRPQESPRP | -0.257 |
| RRIRDRPPRLPRPRPRPQFFPRP | -0.00144 |
| RRIRDRPPRLPRPRPRPQFLPRP | -0.225 |

| Sequence | shrunken log2 fold change |
| --- | --- |
| RRIRDRPPRLPRPRPRPQFNPRP | -0.195 |
| RRIRDRPPRLPRPRPRPQGIPRP | -0.0548 |
| RRIRDRPPRLPRPRPRPQICPRP | -0.0334 |
| RRIRDRPPRLPRPRPRPQIPPRP | -0.085 |
| RRIRDRPPRLPRPRPRPQKFPRP | -0.0467 |
| RRIRDRPPRLPRPRPRPQLLPRP | 0.206 |
| RRIRDRPPRLPRPRPRPQLMPRP | 0.419 |
| RRIRDRPPRLPRPRPRPQNEPRP | -0.24 |
| RRIRDRPPRLPRPRPRPQPCPRP | -0.0957 |
| RRIRDRPPRLPRPRPRPQPDPRP | 0.177 |
| RRIRDRPPRLPRPRPRPQPTPRP | 0.0584 |
| RRIRDRPPRLPRPRPRPQQEPRP | 0.00606 |
| RRIRDRPPRLPRPRPRPQQNPRP | -0.452 |
| RRIRDRPPRLPRPRPRPQSCPRP | -0.0045 |
| RRIRDRPPRLPRPRPRPQSGPRP | -0.136 |
| RRIRDRPPRLPRPRPRPQSYPRP | -0.495 |
| RRIRDRPPRLPRPRPRPQTAPRP | 4.26 |
| RRIRDRPPRLPRPRPRPQTKPRP | -0.115 |
| RRIRDRPPRLPRPRPRPQTNPRP | 0.118 |
| RRIRDRPPRLPRPRPRPQWSPRP | -0.0128 |
| RRIRDRPPRLPRPRPRPQYWPRP | -0.695 |
| RRIRDRPPRLPRPRPRPRAIPRP | 0.108 |
| RRIRDRPPRLPRPRPRPRCHPRP | -0.0835 |
| RRIRDRPPRLPRPRPRPRELPRP | 0.0713 |
| RRIRDRPPRLPRPRPRPRHNPRP | -0.548 |

| Sequence | shrunken log2 fold change |
| --- | --- |
| RRIRDRPPRLPRPRPRPRINPRP | 0.0252 |
| RRIRDRPPRLPRPRPRPRLKPRP | 0.411 |
| RRIRDRPPRLPRPRPRPRLWPRP | 0.842 |
| RRIRDRPPRLPRPRPRPRMTPRP | 0.212 |
| RRIRDRPPRLPRPRPRPRNLPRP | -0.0438 |
| RRIRDRPPRLPRPRPRPRNMPRP | -0.602 |
| RRIRDRPPRLPRPRPRPRNVPRP | 0.0903 |
| RRIRDRPPRLPRPRPRPRPRPRP | 0.983 |
| RRIRDRPPRLPRPRPRPRQDPRP | 0.367 |
| RRIRDRPPRLPRPRPRPRQPPRP | 0.252 |
| RRIRDRPPRLPRPRPRPRRLPRP | 0.472 |
| RRIRDRPPRLPRPRPRPRSCPRP | 0.2 |
| RRIRDRPPRLPRPRPRPRSQPRP | 0.137 |
| RRIRDRPPRLPRPRPRPRTCPRP | -0.0386 |
| RRIRDRPPRLPRPRPRPRTNPRP | -0.179 |
| RRIRDRPPRLPRPRPRPRTYPRP | -0.126 |
| RRIRDRPPRLPRPRPRPRWCPRP | 0.33 |
| RRIRDRPPRLPRPRPRPRWWPRP | 0.0238 |
| RRIRDRPPRLPRPRPRPSCLPRP | -0.0009 |
| RRIRDRPPRLPRPRPRPSCNPRP | -0.493 |
| RRIRDRPPRLPRPRPRPSDLPRP | 0.0645 |
| RRIRDRPPRLPRPRPRPSDPPRP | -0.0499 |
| RRIRDRPPRLPRPRPRPSDWPRP | 0.137 |
| RRIRDRPPRLPRPRPRPSECPRP | -0.043 |
| RRIRDRPPRLPRPRPRPSEYPRP | -0.0118 |

| Sequence | shrunken log2 fold change |
| --- | --- |
| RRIRDRPPRLPRPRPRPSFCPRP | -0.0945 |
| RRIRDRPPRLPRPRPRPSFHPRP | -0.429 |
| RRIRDRPPRLPRPRPRPSFNPRP | -0.68 |
| RRIRDRPPRLPRPRPRPSGAPRP | 0.0348 |
| RRIRDRPPRLPRPRPRPSGPPRP | -0.0549 |
| RRIRDRPPRLPRPRPRPSHHPRP | -0.344 |
| RRIRDRPPRLPRPRPRPSHKPRP | -0.373 |
| RRIRDRPPRLPRPRPRPSIQPRP | -0.0741 |
| RRIRDRPPRLPRPRPRPSKRPRP | -0.273 |
| RRIRDRPPRLPRPRPRPSLAPRP | 0.474 |
| RRIRDRPPRLPRPRPRPSMAPRP | 0.202 |
| RRIRDRPPRLPRPRPRPSPPPRP | -0.15 |
| RRIRDRPPRLPRPRPRPSPQPRP | 0.204 |
| RRIRDRPPRLPRPRPRPSRMPRP | -0.0207 |
| RRIRDRPPRLPRPRPRPSSCPRP | 0.00339 |
| RRIRDRPPRLPRPRPRPSTKPRP | 0.116 |
| RRIRDRPPRLPRPRPRPSTMPRP | 0.0367 |
| RRIRDRPPRLPRPRPRPSVCPRP | 0.294 |
| RRIRDRPPRLPRPRPRPSVKPRP | -0.256 |
| RRIRDRPPRLPRPRPRPTCHPRP | 0.0627 |
| RRIRDRPPRLPRPRPRPTCNPRP | 0.13 |
| RRIRDRPPRLPRPRPRPTDIPRP | -0.231 |
| RRIRDRPPRLPRPRPRPTDSPRP | -0.0622 |
| RRIRDRPPRLPRPRPRPTEDPRP | -0.0699 |
| RRIRDRPPRLPRPRPRPTEWPRP | 0.531 |

| Sequence | shrunken log2 fold change |
| --- | --- |
| RRIRDRPPRLPRPRPRPTHFPRP | -0.0613 |
| RRIRDRPPRLPRPRPRPTHGPRP | 0.117 |
| RRIRDRPPRLPRPRPRPTHNPRP | -0.00516 |
| RRIRDRPPRLPRPRPRPTKDPRP | 0.0518 |
| RRIRDRPPRLPRPRPRPTKTPRP | -0.014 |
| RRIRDRPPRLPRPRPRPTMFPRP | 0.0915 |
| RRIRDRPPRLPRPRPRPTNTPRP | -0.142 |
| RRIRDRPPRLPRPRPRPTNWPRP | 0.111 |
| RRIRDRPPRLPRPRPRPTQAPRP | 0.017 |
| RRIRDRPPRLPRPRPRPTQLPRP | -0.0815 |
| RRIRDRPPRLPRPRPRPTRSPRP | 0.877 |
| RRIRDRPPRLPRPRPRPTSEPRP | 0.236 |
| RRIRDRPPRLPRPRPRPTTPPRP | 0.351 |
| RRIRDRPPRLPRPRPRPTTWPRP | 0.467 |
| RRIRDRPPRLPRPRPRPTVWPRP | 0.527 |
| RRIRDRPPRLPRPRPRPTYIPRP | -0.393 |
| RRIRDRPPRLPRPRPRPTYKPRP | -0.529 |
| RRIRDRPPRLPRPRPRPVDQPRP | -0.131 |
| RRIRDRPPRLPRPRPRPVECPRP | 0.018 |
| RRIRDRPPRLPRPRPRPVFFPRP | 0.208 |
| RRIRDRPPRLPRPRPRPVIAPRP | 0.224 |
| RRIRDRPPRLPRPRPRPVKEPRP | -0.0586 |
| RRIRDRPPRLPRPRPRPVKNPRP | -0.0293 |
| RRIRDRPPRLPRPRPRPVLPPRP | 0.0231 |
| RRIRDRPPRLPRPRPRPVMMPRP | -0.168 |
